In the supplement of paper PMC10065799, “High-throughput profiling of sequence recognition by tyrosine kinases and SH2 domains using bacterial peptide display” (eLife, 2023):

Tests used:
AncSZ = assay: phosphorylation enrichment, bacterial display (enrichment ratio); higher = better substrate or ligand; peptides without Tyr show the background
MERTK = MERTK (UniProt Q12866); assay: as above
FGFR1 = FGFR1 (UniProt P11362); assay: as above
Fyn = Fyn (UniProt P06241); assay: as above
Fer (mouse) = assay: as above
Fes = Fes (UniProt P07332); assay: as above
Sequence of Fes (P07332 whole entry, looked up): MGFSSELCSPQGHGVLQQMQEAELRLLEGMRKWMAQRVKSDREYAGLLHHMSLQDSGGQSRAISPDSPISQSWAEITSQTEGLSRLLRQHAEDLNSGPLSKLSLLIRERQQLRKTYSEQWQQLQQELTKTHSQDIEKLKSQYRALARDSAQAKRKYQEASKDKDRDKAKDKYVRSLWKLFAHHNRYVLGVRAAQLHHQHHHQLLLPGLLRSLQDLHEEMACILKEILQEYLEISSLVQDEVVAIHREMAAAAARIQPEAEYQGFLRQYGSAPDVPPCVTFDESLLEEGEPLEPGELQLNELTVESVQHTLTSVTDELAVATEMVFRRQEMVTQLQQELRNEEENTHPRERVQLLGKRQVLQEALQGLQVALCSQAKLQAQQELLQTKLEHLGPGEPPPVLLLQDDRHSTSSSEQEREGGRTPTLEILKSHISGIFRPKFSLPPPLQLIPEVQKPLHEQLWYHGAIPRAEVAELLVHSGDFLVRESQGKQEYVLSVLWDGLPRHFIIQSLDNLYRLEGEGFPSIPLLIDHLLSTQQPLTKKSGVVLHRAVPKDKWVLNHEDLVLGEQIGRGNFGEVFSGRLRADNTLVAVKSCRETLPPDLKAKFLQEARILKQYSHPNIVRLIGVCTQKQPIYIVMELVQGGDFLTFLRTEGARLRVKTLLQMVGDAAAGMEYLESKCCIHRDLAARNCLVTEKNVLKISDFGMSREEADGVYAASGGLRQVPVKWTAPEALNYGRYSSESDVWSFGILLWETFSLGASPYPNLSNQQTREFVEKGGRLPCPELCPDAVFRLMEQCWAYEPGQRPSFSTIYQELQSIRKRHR

c-Abl (mouse) = assay: as above
Hck = Hck (UniProt P08631); assay: as above
Sequence of Hck (P08631 whole entry, looked up): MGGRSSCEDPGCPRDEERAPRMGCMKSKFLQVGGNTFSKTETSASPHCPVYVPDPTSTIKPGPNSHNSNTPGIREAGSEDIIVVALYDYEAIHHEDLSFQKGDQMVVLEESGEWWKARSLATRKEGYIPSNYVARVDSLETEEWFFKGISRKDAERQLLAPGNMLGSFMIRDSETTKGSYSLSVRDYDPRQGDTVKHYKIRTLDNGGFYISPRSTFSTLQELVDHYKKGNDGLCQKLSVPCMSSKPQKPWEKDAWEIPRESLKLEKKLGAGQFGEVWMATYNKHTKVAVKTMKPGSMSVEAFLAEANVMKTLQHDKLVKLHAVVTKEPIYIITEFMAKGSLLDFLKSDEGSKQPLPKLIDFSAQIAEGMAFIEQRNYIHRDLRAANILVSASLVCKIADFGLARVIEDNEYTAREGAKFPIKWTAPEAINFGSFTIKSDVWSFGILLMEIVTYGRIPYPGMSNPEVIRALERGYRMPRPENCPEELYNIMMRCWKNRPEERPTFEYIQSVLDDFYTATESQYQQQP

Jak2 = Jak2 (UniProt O60674); assay: as above
c-Src = assay: as above
EPHB1 = EPHB1 (UniProt P54762); assay: as above
EPHB2 = EPHB2 (UniProt P29323); assay: as above
Sequence of EPHB2 (P29323 whole entry, looked up): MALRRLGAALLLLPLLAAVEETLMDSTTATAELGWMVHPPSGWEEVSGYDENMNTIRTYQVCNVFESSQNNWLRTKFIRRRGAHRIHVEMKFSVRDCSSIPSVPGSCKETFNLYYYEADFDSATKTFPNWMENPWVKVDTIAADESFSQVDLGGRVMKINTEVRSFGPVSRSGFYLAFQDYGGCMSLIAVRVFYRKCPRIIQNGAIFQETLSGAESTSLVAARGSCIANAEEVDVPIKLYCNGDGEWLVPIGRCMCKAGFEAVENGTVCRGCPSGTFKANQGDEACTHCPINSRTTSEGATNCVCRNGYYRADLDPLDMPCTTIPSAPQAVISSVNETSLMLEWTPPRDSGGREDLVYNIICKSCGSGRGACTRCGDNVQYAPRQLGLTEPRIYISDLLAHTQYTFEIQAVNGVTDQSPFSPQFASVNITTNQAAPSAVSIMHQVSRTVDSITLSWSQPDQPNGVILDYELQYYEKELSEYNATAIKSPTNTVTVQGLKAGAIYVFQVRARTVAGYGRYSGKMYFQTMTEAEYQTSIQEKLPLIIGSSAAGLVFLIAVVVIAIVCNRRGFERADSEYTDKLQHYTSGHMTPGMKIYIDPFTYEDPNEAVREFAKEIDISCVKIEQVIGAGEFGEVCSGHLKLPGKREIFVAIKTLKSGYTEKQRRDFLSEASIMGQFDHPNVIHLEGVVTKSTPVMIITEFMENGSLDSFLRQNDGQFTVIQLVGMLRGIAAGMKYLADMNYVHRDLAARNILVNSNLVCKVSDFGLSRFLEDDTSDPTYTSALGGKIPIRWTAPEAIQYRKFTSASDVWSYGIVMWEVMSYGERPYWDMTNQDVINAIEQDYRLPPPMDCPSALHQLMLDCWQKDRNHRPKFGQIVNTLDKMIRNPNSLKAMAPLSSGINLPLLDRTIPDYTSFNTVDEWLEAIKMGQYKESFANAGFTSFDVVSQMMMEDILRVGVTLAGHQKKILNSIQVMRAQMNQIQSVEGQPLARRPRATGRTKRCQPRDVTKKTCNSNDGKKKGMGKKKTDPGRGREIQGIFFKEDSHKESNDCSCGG

FGFR3 = FGFR3 (UniProt P22607); assay: as above
Sequence of FGFR3 (P22607 whole entry, looked up): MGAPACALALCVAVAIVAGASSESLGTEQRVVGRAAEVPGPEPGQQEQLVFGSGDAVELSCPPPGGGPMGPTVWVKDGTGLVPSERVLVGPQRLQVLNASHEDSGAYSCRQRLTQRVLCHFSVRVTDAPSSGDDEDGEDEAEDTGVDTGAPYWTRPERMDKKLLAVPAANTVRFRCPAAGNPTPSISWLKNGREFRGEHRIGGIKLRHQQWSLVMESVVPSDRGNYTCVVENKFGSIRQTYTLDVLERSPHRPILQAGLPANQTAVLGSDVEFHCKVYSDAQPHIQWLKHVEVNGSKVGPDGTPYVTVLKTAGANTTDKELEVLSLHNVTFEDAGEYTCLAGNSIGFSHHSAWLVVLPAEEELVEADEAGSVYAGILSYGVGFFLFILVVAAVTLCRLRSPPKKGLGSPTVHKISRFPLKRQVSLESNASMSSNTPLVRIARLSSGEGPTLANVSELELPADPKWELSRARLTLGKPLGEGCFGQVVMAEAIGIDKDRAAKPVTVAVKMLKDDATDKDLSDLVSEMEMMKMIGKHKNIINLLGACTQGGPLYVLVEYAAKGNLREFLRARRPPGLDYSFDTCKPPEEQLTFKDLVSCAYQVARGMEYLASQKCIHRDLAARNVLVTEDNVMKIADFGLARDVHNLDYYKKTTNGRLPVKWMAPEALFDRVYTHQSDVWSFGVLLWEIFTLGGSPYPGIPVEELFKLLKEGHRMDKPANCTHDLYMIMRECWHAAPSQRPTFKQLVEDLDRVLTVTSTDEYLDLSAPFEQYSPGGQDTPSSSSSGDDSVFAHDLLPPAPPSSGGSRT

SHP2-C SH2 = assay: SH2 binding enrichment of the phosphorylated peptide, bacterial display (enrichment ratio); higher = better substrate or ligand; peptides without Tyr show the background
Grb2 SH2 = Grb2 SH2 (UniProt P62993); assay: as above
c-Src SH2 = assay: as above
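Wherever SH2 binding enrichment of the phosphorylated peptide, bacterial display is given: peptide library displayed on the E. coli surface as eCPX fusions, selected cells deep-sequenced, score is each peptide's frequency after selection divided by its frequency in the input.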
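Wherever phosphorylation enrichment, bacterial display is given: 11-residue human phosphosite peptides and single-mutation variants displayed on the E. coli surface, counted by deep sequencing, each peptide's frequency after selection divided by its frequency in the unselected input library; frequency after pTyr selection over input frequency; kinase dosed for 20-30% of maximal phosphorylation in three min.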

Sequence of MERTK (Q12866 whole entry, looked up): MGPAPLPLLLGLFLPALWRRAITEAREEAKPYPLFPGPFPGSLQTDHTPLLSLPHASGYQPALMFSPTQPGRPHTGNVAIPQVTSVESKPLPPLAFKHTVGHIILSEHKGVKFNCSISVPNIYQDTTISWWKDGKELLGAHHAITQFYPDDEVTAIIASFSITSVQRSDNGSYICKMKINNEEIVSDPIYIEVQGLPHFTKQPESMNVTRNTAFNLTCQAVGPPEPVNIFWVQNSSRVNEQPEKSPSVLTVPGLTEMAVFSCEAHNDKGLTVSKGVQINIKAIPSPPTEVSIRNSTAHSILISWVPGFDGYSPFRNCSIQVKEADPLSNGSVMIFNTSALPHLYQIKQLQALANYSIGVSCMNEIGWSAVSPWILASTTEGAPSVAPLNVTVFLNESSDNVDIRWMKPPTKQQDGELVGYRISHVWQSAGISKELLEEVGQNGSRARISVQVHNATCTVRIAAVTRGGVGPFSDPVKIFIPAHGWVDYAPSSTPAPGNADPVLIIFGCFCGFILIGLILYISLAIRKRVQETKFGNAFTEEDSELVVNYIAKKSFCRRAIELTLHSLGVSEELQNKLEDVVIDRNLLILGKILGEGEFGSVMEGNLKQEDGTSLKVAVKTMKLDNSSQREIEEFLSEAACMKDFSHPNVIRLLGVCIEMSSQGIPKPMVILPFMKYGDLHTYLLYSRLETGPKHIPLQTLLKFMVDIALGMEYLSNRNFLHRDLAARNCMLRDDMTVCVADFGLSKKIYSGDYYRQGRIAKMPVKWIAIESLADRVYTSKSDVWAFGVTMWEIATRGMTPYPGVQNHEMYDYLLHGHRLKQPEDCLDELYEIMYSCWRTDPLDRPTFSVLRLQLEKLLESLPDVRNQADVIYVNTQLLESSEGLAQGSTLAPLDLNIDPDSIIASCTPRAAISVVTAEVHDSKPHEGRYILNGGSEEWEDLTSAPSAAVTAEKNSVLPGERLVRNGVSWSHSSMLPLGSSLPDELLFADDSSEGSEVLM
Sequence of FGFR1 (P11362 whole entry, looked up): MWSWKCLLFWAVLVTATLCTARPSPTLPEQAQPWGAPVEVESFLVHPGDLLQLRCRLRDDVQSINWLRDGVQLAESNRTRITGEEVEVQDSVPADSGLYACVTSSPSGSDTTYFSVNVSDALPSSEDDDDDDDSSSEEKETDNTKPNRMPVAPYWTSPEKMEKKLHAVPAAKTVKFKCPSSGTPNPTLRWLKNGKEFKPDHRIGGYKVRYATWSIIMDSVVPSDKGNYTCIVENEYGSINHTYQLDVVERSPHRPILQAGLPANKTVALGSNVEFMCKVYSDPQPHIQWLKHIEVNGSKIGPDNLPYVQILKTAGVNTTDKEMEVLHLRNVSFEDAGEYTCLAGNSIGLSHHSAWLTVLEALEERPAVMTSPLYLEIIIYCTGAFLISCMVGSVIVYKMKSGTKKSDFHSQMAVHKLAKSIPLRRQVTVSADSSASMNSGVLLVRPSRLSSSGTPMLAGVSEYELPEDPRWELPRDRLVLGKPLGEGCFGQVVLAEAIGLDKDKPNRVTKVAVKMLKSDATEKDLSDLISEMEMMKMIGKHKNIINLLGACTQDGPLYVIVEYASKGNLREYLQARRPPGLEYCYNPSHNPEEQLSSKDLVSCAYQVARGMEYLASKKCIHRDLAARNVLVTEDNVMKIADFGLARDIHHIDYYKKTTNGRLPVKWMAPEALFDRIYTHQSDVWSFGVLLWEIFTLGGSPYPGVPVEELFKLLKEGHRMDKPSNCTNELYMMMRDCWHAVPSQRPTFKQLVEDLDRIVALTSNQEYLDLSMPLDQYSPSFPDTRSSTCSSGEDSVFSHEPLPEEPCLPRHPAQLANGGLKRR

Row | Sequence | phosphorylation enrichment (AncSZ) | phosphorylation enrichment (MERTK) | phosphorylation enrichment (FGFR1) | phosphorylation enrichment (Fyn) | phosphorylation enrichment (Fer (mouse)) | phosphorylation enrichment (Fes) | phosphorylation enrichment (c-Abl (mouse)) | phosphorylation enrichment (Hck) | phosphorylation enrichment (Jak2) | phosphorylation enrichment (c-Src) | phosphorylation enrichment (EPHB1) | phosphorylation enrichment (EPHB2) | phosphorylation enrichment (FGFR3) | SH2 binding enrichment (SHP2-C SH2) | SH2 binding enrichment (Grb2 SH2) | SH2 binding enrichment (c-Src SH2)
1 | NDDDVYLSLEE [VAV2_Y142_R143L] | 1.49 | 0.507 | 0.725 | 0.706 | 0.656 | 1.48 | 1.05 | 0.721 | 1.54 | 0.804 | 0.793 | 0.627 | 0.984 | 0.616 | 0.834 | 0.477
2 | NDPMEYAKQHG [ASS1_Y163_L160P] | 0.769 | 0.465 | 0.415 | 0.389 | 0.426 | 0.876 | 0.718 | 0.467 | 0.86 | 0.396 | 0.419 | 0.485 | 0.527 | 0.545 | 0.804 | 0.457
3 | NETNKYQISVN [FGB_Y368_A365T] | 0.653 | 0.418 | 0.411 | 0.415 | 0.375 | 0.709 | 0.57 | 0.412 | 0.684 | 0.329 | 0.427 | 0.46 | 0.575 | 0.581 | 0.889 | 0.432
4 | NFFEFYVDDPL [GCHFR_Y48_P53L_YF] | 1.09 | 0.413 | 0.501 | 0.436 | 0.428 | 1.11 | 0.78 | 0.439 | 1.07 | 0.489 | 0.773 | 0.52 | 0.874 | 0.585 | 0.686 | 0.485
5 | NFSKMYCNPDA [KNL1_Y489_A486S_YF] | 0.94 | 0.524 | 0.46 | 0.486 | 0.563 | 0.924 | 0.699 | 0.488 | 0.894 | 0.426 | 0.562 | 0.613 | 0.802 | 0.619 | 0.751 | 2.54
6 | NGPDVYVLPVT [AATK_Y93_L97V] | 1.79 | 2.73 | 0.72 | 2.25 | 0.453 | 1.05 | 0.787 | 0.776 | 0.837 | 1.2 | 0.723 | 0.644 | 0.751 | 0.617 | 0.902 | 0.594
7 | NGQAVYAACQT [XDH_Y1092] | 0.545 | 1.64 | 0.506 | 4.76 | 2.4 | 0.706 | 3.5 | 4.26 | 0.378 | 3.51 | 2.24 | 2.2 | 0.371 | 0.618 | 0.685 | 0.427
8 | NHRNQYQALKP [CLSPN_Y887] | 0.739 | 0.531 | 0.351 | 0.335 | 0.356 | 0.534 | 0.476 | 0.504 | 0.463 | 0.404 | 0.375 | 0.377 | 0.438 | 1.05 | 1.06 | 0.915
9 | NIRKKYFRAIL [CHD7_Y1217_Q1214R_YF] | 0.583 | 0.555 | 0.48 | 0.45 | 0.394 | 0.661 | 0.633 | 0.451 | 0.496 | 0.504 | 0.466 | 0.6 | 0.546 | 0.544 | 0.764 | 0.356
10 | NLVSEYQQYQD [TUBB3_Y422_D417N] | 1.37 | 0.44 | 0.531 | 0.592 | 0.508 | 1.05 | 0.679 | 0.606 | 0.968 | 0.541 | 0.582 | 0.693 | 0.726 | 0.698 | 0.831 | 0.673
11 | NMRSTYAKLAA [SEC22B_Y193_H190R] | 0.563 | 0.49 | 0.359 | 0.407 | 0.439 | 0.561 | 0.453 | 0.456 | 0.587 | 0.444 | 0.373 | 0.397 | 0.403 | 9.73 | 0.636 | 1.67
12 | NNIDFYKKTTN [FGFR2_Y657_YF] | 0.637 | 0.364 | 0.338 | 0.393 | 0.388 | 0.695 | 0.498 | 0.435 | 0.722 | 0.422 | 0.639 | 0.397 | 0.467 | 0.45 | 0.729 | 0.515
13 | NPPGMYPVTGP [LPP_Y346] | 0.649 | 0.348 | 0.394 | 0.336 | 0.649 | 0.531 | 0.506 | 0.375 | 0.482 | 0.389 | 0.375 | 0.325 | 0.396 | 0.547 | 0.638 | 0.418
14 | NPQKSYFIRLY [WAS_Y83] | 1.16 | 0.353 | 0.486 | 0.372 | 0.542 | 1.15 | 0.724 | 0.452 | 1.07 | 0.349 | 0.61 | 0.637 | 0.745 | 0.937 | 1.06 | 0.517
